Patent US20110008841A1 (Amgen, published 2011)

Key:
[1] = molecular target: Human IL-17RA full-length expressed on the surface of cells (human, UniProt Q96F46 33-866); experiment: cell-based or functional assay
[2] = molecular target: T1, cynomolgus IL-17RA on cells (cynomolgus); experiment: FACS, biotin-huIL-17A on cyno IL-17RA+ CHO cells with non-clonal supernatant; lower = more inhibition
T1 construct: whole, on cells; also called CHO-cynoIL-17RA; cyno IL-17RA+ CHO cells
Protocol: The anti-IL-17RA antibodies were characterized. Non-clonal hybridoma supernatants were prepared in volumes of 1-2 mls (the Ig concentrations were not determined for these supernatants).

[3] = molecular target: T1, cynomolgus IL-17RA on cells; experiment: as above; remark: listed apart in the source
Protocol: Non-clonal hybridoma supernatants were prepared in volumes of 1-2 mls (the Ig concentrations were not determined for these supernatants). […] Anti-IL-17RA non-clonal hybridomas were selected for sub-cloning based on their performance in the CHO-IL-17RA FACS assay and HFF bioassay.

[4] = molecular target: T1, cynomolgus IL-17RA on cells; experiment: FACS, biotin-huIL-17A on cyno IL-17RA+ cells with non-clonal supernatant; lower = more inhibition

Binder | MFI [3] | MFI [4] | also measured
Germline version A (antibody, V domains shown) VH: QVQLVQSGAEVKKPGASVKVSCKASGYTFTRYGISWVRQAPGQGLEWMGWISTYSGNTNYAQKLQGRVTMTTDTSTSTAYMELRSLRSDDTAVYYCARRQLYFDYWGQGTLVTVSS VL: EIVMTQSPATLSVSPGERATLSCRASQSVSSNLAWYQQKPGQAPRLLIYDASTRATGIPARFSGSGSGTDFTLTISSLQSEDFAVYYCQQYDNWPLTFGGGTKVEIK |  |  | IC50, HFF bioassay (ligand not named on the sheet) [1]: ~107 nM
AMH15/AML15 (antibody, V domains shown, also called AM-15) VH: QVQLVESGGGVVQPGRSLRLSCAASGFTFSSYGMQWVRQAPGKGLEWVAVIWYDGNKKYYADSVKGRFTISRDNSKNTLYLQMNSLRAEDTAVYYCARGRVRDYYYGMDVWGQGTTVTVSS VL: EIVMTQSPATLSVSPGERVTLSCRASQSVSSNLAWFQQKPGQAPRPLIYDASTRAAGIPARFSGSGSGTDFTLTISSLQSEDFAVYYCQQYDNWPLTFGGGTKVEIK |  |  | MFI [2]: 6
Germline version B (antibody, V domains shown) VH: QVQLVQSGAEVKKPGASVKVSCKASGYTFTRYGISWVRQAPGQGLEWMGWISTYSGNTNYAQKLQGRVTMTTDTSTSTAYMELRSLRSDDTAVYYCARRQLYFDYWGQGTLVTVSS VL: EIVMTQSPATLSVSPGERATLSCRASQSVSSNLAWYQQKPGQAPRLLIYDASTRATGIPARFSGSGSGTEFTLTISSLQSEDFAVYYCQQYDNWPLTFGGGTKVEIK |  |  | IC50, HFF bioassay (ligand not named on the sheet) [1]: ~103 nM
AMH17/AML17 (antibody, V domains shown, Fully human mAb from IgG2 XenoMouse mice; also called AM-17; antibody N) VH: QVQLVQSGAEVKKPGAAVKVSCKATGYTLTSYGISWVRQAPGQGLEWMGWISAYSGNTKYAQKLQGRVTMTTDTSTSTAYMELRSLRSDDTAVYYCARKQLVFDYWGQGTLVTVSS VL: not shown | 8 |  | 
AMH22/AML22 (antibody, IgG2, V domains shown, Fully human mAb from IgG2 XenoMouse mice; also called AM-22; antibody I) VH: QVQLVQSGAEVKKPGASVKVSCKASGYTFTRYGISWVRQAPGQGLEWMGWISAYSGNTNYAQKLQGRVTMTTDTSTSTAYMELRSLRSDDTAVYYCARRQLYFDYWGQGTLVTVSS VL: EIVMTQSPATLSVSPGERVTLSCRASQSVSSNLAWFQQKPGQAPRPLIYDASTRAAGIPARFSGSGSGTDFTLTISSLQSEDFAVYYCQQYDNWPLTFGGGTKVEIK |  | 18 | 
AMH16/AML16 (antibody, IgG2, V domains shown, Fully human mAb from IgG2 XenoMouse mice; also called AM-16; antibody O) VH: QVQLVQSGAEVKKPGASVKVSCKASGYTFTSYGISWVRQAPGQGLEWMGWISAYNGNTKYAQKLQGRVTMTTDTSTSTVYMELRSLRSDDTAVYYCARKQLVFDYWGQGTLVTVSS VL: EIVMTQSPATLSVSPGERATLSCRASQSISTSLAWYQQKPGQAPRLLIYGTSTRATGIPARFSGSGSGTEFTLTISSLQSEDFAVYFCQQYDIWPLTFGGGTKVEIK | 6 |  | 
AMH14/AML14 (antibody, V domains shown, Fully human mAb from IgG2 XenoMouse mice; Biotinylated in the Octet assay; also called AM-14; antibody K) VH: QVQLVQSGAEVKKPGASVKVSCKASGYTFTRYGISWVRQAPGQGLEWMGWISTYSGNTNYAQKLQGRVTMTTDTSTSTAYMELRSLRSDDTAVYYCARRQLYFDYWGQGTLVTVSS VL: EIVMTQSPATLSVSPGERATLSCRASQSVSSNLAWFQQKPGQAPRPLIYDASTRATGVPARFSGSGSGTDFTLTISSLQSEDFAVYYCQQYDNWPLTFGGGTKVEIK |  |  | MFI [2]: 10
AMH12/AML12 (antibody, IgG2, V domains shown, Fully human mAb from IgG2 XenoMouse mice; also called AM-12; antibody M) VH: QVQLVQSGAEVKKPGASVKVSCKASGYTLTSYGISWVRQAPGQGLEWMGWISTYKGNTNYAQKLQGRVTMTTDTSTSTAYMELRSLRSDDTAVYYCARKQLVFDYWGQGTLVTVSS VL: EIVMTQSPATLSVSPGERATLSCRASQSISSSLAWYQQKPGQAPRLLIYGASTRATGIPARFSGSGSGTEFTLTISSLQSENFAVYYCQQYDNWPLTFGGGTKVEIK | 6 |  | 
AMH13/AML13 (antibody, IgG2, V domains shown, Fully human mAb from IgG2 XenoMouse mice; also called AM-13) VH: QVQLVESGGGVVQPGRSLRLSCAASGFTFSSYGMQWVRQAPGKGLEWVAVIWYDGNKKYYADSVKGRFTISRDNSKNTLYLQMNSLRAEDTAVYYCARGRVRDYYYGMDVWGQGTTVTVSS VL: DIVMTQTPLSLSVTPGQPASIACKSSQSLLHSDGKTYLYWYLQKPGQPPQLLIYEVSTRFSGVPDRFSGSGSGTDFTLKISRVEAEDVGVFYCMQSIQLPLTFGGGTKVEIK | 6 |  | 
AMH5/AML5 (antibody, V domains shown, also called AM-5) VH: QVQLQESGPGLVKPSETLPLTCTVSGGSIRSYYWSWIRQPAGKGLEWIGRIYRSGNTIYNPSLKSRVTMSIDTSKNQFSLTLSSVTAADTAVYYCARENYSESSGLYYYYGMDVWGQGTTVTVSS VL: DIQMTQSPSSLSASVGDRVTITCRASQGIRNDLGWYQQKPGKAPKRLIYAASSFQSGVPSRFSGSGSGTGFTLTISSLQPEDFATYYCLQHNSYPPTFGQGTKVEIK |  | 9 | 
AMH1/AML1 (antibody, IgG2, V domains shown, Fully human mAb from IgG2 XenoMouse mice; also called AM-1; antibody H) VH: QVQLQESGPGLVKPSETLSLTCTVSGGSISNYYWNWIRQSPGKGLEWIGDIYYSGSTNYNPSLKSRVTISVDTSKNQFSLKLSSVTTADTAVYYCARDGELANYYGSGSYQFYYYYGMDVWGQGTTVTVSS VL: DILMTQSPSSLSASVGDRVTITCRASQGIRNDLGWYQQKPGKAPKRLIYAASSLQSGVPSRFSGSGSGTEFTLTISSLQPEDFATYYCLQHNSNPFTFGPGTKVDIK |  | 11 | 
AMH11/AML11 (antibody, IgG2, V domains shown, Fully human mAb from IgG2 XenoMouse mice; also called AM-11; antibody A) VH: QVQLVESGGGVVQPGRSLRLSCATSGITFSSYGMHWVRQAPGKGLEWVAVIWYDGSNKYYADSVKGRFTISRDNSKNTLYLQMNSLRAEDTAVYYCARDTKDYWGQGTLVTVSS VL: EIVMTQSPATLSVSPGERATLSCRASQSVSSNLAWYQQKPGQAPRLLIYGASTRAAGIPARFSGGGSGTAFTLTISNLQSEDFAVYYCQHYINWPKWTFGQGTKVDIK |  | 9 | 
AMH21/AML21 (antibody, IgG2, V domains shown, Fully human mAb from IgG2 XenoMouse mice; also called AM-21; antibody Q) VH: EVQLVESGGGSVQPGGSLRLSCAASGFTFSSYSMNWVRQAPGKGLEWVSIISSRSSIIHYADSVKGRFTISRDNAKNSLYLQMNSLRDEDTAVYYCARPKVGGGMDVWGQGTTVTVSS VL: DIQMTQSPSSLSASVGDRVTITCRASQGISNYLAWYQQKPGKFPELLIYAASTLQSGVPSRFSGSGSGTDFTLTISSLQPEDVATYYCQKYNRAPFTFGPGTKVDIK |  |  | MFI [2]: 6
